Key:
[1] = biological target: T1, recombinant GDF11 (UniProt O95390 299-407); assay: cell-based or functional assay
T1 sequence (looked up): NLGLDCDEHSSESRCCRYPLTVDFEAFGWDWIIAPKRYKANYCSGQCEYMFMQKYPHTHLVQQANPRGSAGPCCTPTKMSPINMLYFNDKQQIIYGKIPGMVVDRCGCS

[2] = biological target: T2, recombinant MSTN (UniProt O14793 267-375); assay: cell-based or functional assay
T2 sequence (looked up): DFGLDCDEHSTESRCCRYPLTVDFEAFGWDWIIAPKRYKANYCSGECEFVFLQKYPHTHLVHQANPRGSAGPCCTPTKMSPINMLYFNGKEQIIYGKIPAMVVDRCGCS

B1: GDF11 propeptide-Fc (Fc fusion, human, UniProt O95390 25-298, looked up)
chain: AEGPAAAAAAAAAAAAAGVGGERSSRPAPSVAPEPDGCPVCVWRQHSRELRLESIKSQILSKLRLKEAPNISREVVKQLLPKAPPLQQILDLHDFQGDALQPEDFLEEDEYHATTETVISMAQETDPAVQTDGSPLCCHFHFSPKVMFTKVLKAQLWVYLRPVPRPATVYLQILRLKPLTGEGTAGGGGGGRRHIRIRSLKIELHSRSGHWQSIDFKQVLHSWFRQPQSNWGIEINAFDPSGTDLAVTSLGPGAEGLHPFMELRVLENTKRSRR
[1]
  average myotube diameter relative to control, C2C12 myotubes expressing GDF11PRO-Fc (AAV6) treated with 100 ng/ml rGDF11 (rGDF11 alone: − 39%): -1.8%
  differentiation index relative to untreated control, C2C12 myotubes expressing GDF11PRO-Fc (AAV6) treated with 100 ng/ml rGDF11 (rGDF11 alone: − 15%): -1.9%
[2]
  average myotube diameter relative to control, C2C12 myotubes expressing GDF11PRO-Fc (AAV6) treated with 100 ng/ml rMSTN (rMSTN alone: − 35%): -5.3%
  differentiation index relative to untreated control, C2C12 myotubes expressing GDF11PRO-Fc (AAV6) treated with 100 ng/ml rMSTN (rMSTN alone: − 14%): -3%

Reference: PMC6537384, “A GDF11/myostatin inhibitor, GDF11 propeptide-Fc, increases skeletal muscle mass and improves muscle strength in dystrophic mdx mice” (Skeletal Muscle, 2019)
